Reference: the domain aggregation screens of Martell et al. (2025)

Assay: soluble fraction after stress (log2 fold change); higher = more stays soluble; pooled small domains, quantitative proteomics
Conditions: stress: pH 4
Procedure, shortened: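 After pH 4 stress, pooled custom libraries of small protein domains were quantified with high-throughput quantitative proteomics. Aggregation propensity is taken from the fold change in each domain's soluble amount following the acid stress. The scale is log2, where higher values mean more stayed soluble.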

Row | Sequence | soluble fraction (log2)
1 | HMLSYFKIIKNGLVREGPASYYKIAENLEIGTIVQAFEKHDDWYLIKTHSGRIGWIVASDVTPQV | 0.36
2 | HMLTAHEAILKELRKMLLTGVLSPGEAVRPEIIGESFGVSAVPVREALRILEGEGQVLNRPHKGYVVT | -0.482
3 | HMLTANPEEVVNRLTSAGEVGVRPLLDVDDPINAISTLLAIREDVYKQFAQFDTVGKSPSEIAHEIDDFL | -0.162
4 | HMLTEERLQIITDTVNSRSSVTIAELSRILDVSPSTVKRDLNILAEAGKITKVRGGAIALGE | 0.164
5 | HMLTGDVDRYKDFFIALEKTSPVPIGFEKIIGGAHGYYHLEDKRIAIDEGMSELQTLKTAIHEIAHAKLHD | -0.123
6 | HMLTGNTAKLFAHLVEVMNPKEFVKINRQTVIVEAGIPRGSVGAAIAKLLETGHLIANASGAYKLT | 0.0211
7 | HMLTIEEYLTQLKKLMKDRDAATVRDALSDAEEHLRNAMAGEDPSRLDGIIEEYGSPEEIAAAYKIMEEHT | -0.715
8 | HMLTIQNYFNQVKNIDWEQVPAALSKGHQLVEGASQNNWSAYHSNANIQRVVEAYFQKLNDYLEKN | -0.168
9 | HMLTKGDRQSIRDSIIYMVGNAPRTLDYIVAESRYSEEDVIEAVRSLLSSHILSIDDSDMISLTRK | -0.362
10 | HMLTNNYKNDKALRFAKNHGIHESNILKLVSLYENAPEKGFNAQSIAELLGITPRSASRILVKLLQHNLIR | 0.381
11 | HMLTPSRVLPYLFEDSFFIDTLSLEKDQVVGFLEYIDERLPPQDLMNKSKEFELIDYLINESEAYLSQ | -0.311
12 | HMLTQEEITRRRGEILTAAMGVILRKGFLETSMREIAEAAGVGKSTLYDYFPSKDEIMIAYVVD | -0.869
13 | HMLTRYNVNYYYNGEILQRRKVAEGSAAERITYLSGSLEVTDWYTEADLLRKYDFTEPVTGDLNLYAFARI | -0.556
14 | HMLTSAQLAEIRQAVRAGQASVVEDLLKNGASPNFRMENGDTGFTYAVRADTPQVAEALLKSGKL | -0.00206
15 | HMLTTIRKATVNDKTRIMEIYAYARQFMAEHGNPNQWKNNNPSEETIDNDIAKQEMYVIETDGEVHAVFY | -1.42
16 | HMLVDWNYLEGKRGVTTTPLTPSGKARFGDDVVNVLSDGVLVSTGTPVRVLQVLGNRVLVEPLDG | 0.0163
17 | HMLVGRDPQALILGSMPSEKSLEEDEYYAHPRNRFWSLMNWLLAGNKTRPAYKTGIEILSSHGIALWV | -0.578
18 | HMLVIMKTGASEEEIGRVIERIEGEGLSAHVSRGTERTVIGVIGQGVDVHRIAGVLGGMSGVESLVPIS | 0.0269
19 | HMLVLAENMDVIFTRRTLDDHVVVDYKTTIGEMVKNDEIKGENMDELISAVEKDGYELVSSTSGEIIFLND | -0.704
20 | HMLVVEPSAELKTIIDKTASFVARNGPEFEARIKNEQNNAKFSFLQPNDPFNPYYRAKIVELGGTV | -0.174
21 | HMLVYQRLDKDNFIFEGKTLLNDIYKILDIESNYFEAIRGEADSIAGLLLEIAKSIPTINTEF | -0.571
22 | HMLYEDVQVPNVRYWKSRDAKKQLEDLGLRVLTEHVNDAYIQSDQVIRTSPEIGDTLRTGDTVTLYVSDG | 0.146
23 | HMMKLSKRQEQIIAVVKEHQPVSGERISDILAVSRATLRSDLSFLTLSGILKASPKVGYTYES | ≥ 0.43
24 | HMMLVKKMLNGIMMKEITIKELADQYDVSTRTIQLKIKKLGYEWDSKESIYRYVGKESEPLDVDFSTLI | -1.47
25 | HMMQEIKLEVINNEELRIDNYINLAGIGLSRSYIQKLIKDGVILVNGKEVKSSYKVSLGDIISVQIPDPG | -0.209

Row | Sequence | soluble fraction (log2)
26 | HMMVIMRANATEPQIANVVAYVEKNGLNAHLSRGAERTVIGVVGDIRRVSKETFELMDGVDSVMRIS | -0.734
27 | HMNADKEALIAAAYRNSLIENFGTENVERYEERFNKWADKHDRQGMPMYPTIEKWMNEDNIA | -0.209
28 | HMNADRIVGQTAKVIHPITPDEKGRVMVDNLDWAAAAQNRGESFEVGEEVSIVRIEGVTVYVQK | -0.57
29 | HMNADTVIGKAGTVIEKIDNVAATGAVKIDGKVWTARSERDNITIDEGTLVKAMAIEGVKLIVEPVT | 0.0947
30 | HMNAEGLIGREAVALTAVDAHGGRVRLGGEEWSARLSKENGGVSRLSVGDPVRVTDIDGAIAVVAP | 0.0456
31 | HMNAEQLAQVRRQKIGFIFQDFRLFPEYTVRDNILIPFYLDHRAPDEQMLHKLTGILGIAGKLHSRPAQL | -0.0979
32 | HMNAKVVAPIPGTVLSIDIKVGDVIKIGDRLLVLEAMKMENNIASEKSGTVTAVHVKVGQQVLQNELMIEL | -1.2
33 | HMNALNDLESKIFEEVVKAPEIIMNMTIREFASTVHASPTTIVRMTHKLGFSGWNELKTYLQKQKHQIS | -0.0849
34 | HMNALREVNTSILNVRSGAGTNYSKIGSLTQATRVSVISESNGWSKINYNGKVGYVSSQYLS | ≥ 0.43
35 | HMNAMKPVLTVSLGVHTDSLSRRLNEEGIIYRWQQAASEQLLLVDSESSSERIAELIHDWRLEQSSS | -0.051
36 | HMNANTILNSQRILTQLGFNPGPIDGAFGAKTKGALNAFYTSIGKSYDGLLDSNELVELQKALDVSGLKN | -0.198
37 | HMNDADAHASVDAALKHLEALAETTPEVRAALELVRRGPDGRVTVDSFARVAEALREISIAVGAS | -0.632
38 | HMNDELMEQIDEWHKAEKHQEIIDALEQIPEAERDFETTGFLARAYNNIEEYAKAADLLESVRE | -1.51
39 | HMNDGEIAAPVSGTLQSFKVEDGQTVSEGDLVAVMEAMKMETQILATKGGTIRLLVKEGDYLQAGHALMTI | -1.07
40 | HMNDGTIRVGTNVTIKPSAKRWATGQNIYYGVKGKTYKVIQMNGNRLLLDKVISWINKGDVYVPGS | 0.192
41 | HMNDIDRFIEALIEQDTLPGTNSRINEDVISEMKMMTSVEDIKAYAIATVGLTGGQVNNALINSGL | -1.61
42 | HMNDIVKIYTTHRIINIEGLAKNEPIMLYTINGTLIDKSVSSNGSAQLHVKGIGVYLVKWANNIVKVIVPN | 0.199
43 | HMNDLDSLWDIWENLNERGIGDKSEEGQELRDAIREFIDTNELNVRVTRNKTNEDLLTDIEDALEVAKNS | -2.07
44 | HMNDLIFSTLAEYDRDTITEIISVVDNTRGIGYEVELVRKDLIAMAAQAEARRDYLPSVIGDVEVFKRNLL | -0.0414
45 | HMNDNQNKQMLWELLKDNRAFDNFDNKDYKTIIHLFNETVNTIDHRTPNLDLIKKNKIFIQDIMQKLSNL | -1.04
46 | HMNDSGIIGVVINDHEKYEGHVLEDGFISSSLSALSREIDVAGYFMMVKTVVYEGFFQELKGIGNV | 0.079
47 | HMNDTNEEAVLSIILKNPQATQGAIAKEVGASLSTVKRIMRNLQKSGKLRREGTNRNGSWVVTGQK | 0.136
48 | HMNDTPPELRAALDLLGLKWPLASVELRARYKDLAKQHHPDATGGDKQAEERLKDINRAYSLLKHRLAKQ | 0.144
49 | HMNDTVGMNIRRLRKERGMTQGDLADKAGIQRETISKYESNKLTPPSYNLESIEKALKVPAGTLAQ | 0.22
50 | HMNDYIGVDRAKEIALNHARMNESDVQFAKAKLENDDGVVEYEIEFYFGRTEYDYTIDAVSGNIIEYDVEY | -0.0067

Row | Sequence | soluble fraction (log2)
51 | HMNEDDQLLKVLLAEPLRLEELYNLDLKPQGPYNLQTWIMVHLTELERDGLIARFPDGRYGPAR | -1.57
52 | HMNEFAYLIKISPEHNNNRYYRMVAEGDNFRIEMGRIGASPVQMKRPMYLWNETYQKKLQEGYTDRTSYTS | -0.2
53 | HMNEIDLEAAKRIALQNAGVESADAAFTKAQLDYDDGVAEYEIEFVAGSTKYEYEISAANGTVLKSSKESV | 0.243
54 | HMNEIEIHINKLFGKISDSKRKQELMQEITQNLNEKVSDLVSQGQTREQAVKKAIEDFGDIDDLKDELDN | -0.0968
55 | HMNEIYHQIKVDNVSDDDISLFQYSGIEFDHADYRRGEYIEFAISNRDLSILNNLGYEYQVVHH | -1.07
56 | HMNEKAALIFNEWSDFVSKDDEANAQIKFDELITLYKKTGYTKIALLEVATKQASNGDIEGALAKYSLLID | -0.919
57 | HMNEKTGTLTVYSSPGWAKVYIDGEYKGITPVMANLTYGDHYVKLTLDGYDSIGNHIDVNSPDQSYTGKF | 0.0783
58 | HMNELIGVEQLQDLREAIADHGFAEQRVLNWLYQATKGQVSRLEQLPLPMLTTLHKKLGQWADAEAAASSA | -0.499
59 | HMNELVEATITTQTGRLDKVLTTIFPQYSRSQIQQLLEQGNILVNETLQKGKYKVKAGDKISLTEPAIKE | ≥ 0.43
60 | HMNEMSDTITRLLDAAETGIRLRGYHAVSFRDLAEELGIKSSSVHYYFRQKEDLGLAVVERY | -0.185
61 | HMNENDPRVIKTRRLLLDSFVVLVRKKDFTSISVKDITDSAQVNRATFYAHFQDKYDILEYMVID | -0.198
62 | HMNENNFIVAMRERLAQFIETSGTSQSRIAKELGVSKSTVSLFLGGTYGGNNQELARNLEQLLSMGAARR | 0.212
63 | HMNEPMITEVKRINYGSIKEIAKNLDVFKGKNGTVIIDERTNTLILTDLSENIEKMLWSIEITD | -0.855
64 | HMNERTKIPLRKIEIGQAVYVDTLEKVGTVIDIQGKQFKVDLAGLPITVAARNLFYPLPQEAKP | -0.0254
65 | HMNESADMPDVVNMSLEAAKSQLEGMGLKVKVENVEDDSVEENHVIKTSPVSGEKVKLGTTVTLTVSKGR | -0.279
66 | HMNESEALIARIENLPPIEDLTEKHAEEVKALMTVYSKLKMSDRILVTNYGVLKKDFDALVKKGFLTNED | 0.0976
67 | HMNETHANKVYNFLKKKKKPLSAYEILKELASEGISAPTTIYRALNKLVSNGLIHKIESLNAWTV | 0.185
68 | HMNETLKQIRINALQYSEKDMATKLGLPLSEYKEIENDKPLNFTLLIRLSQAVGKTIDDLLNAQ | -0.128
69 | HMNEVETWSVQADGATGRIDKWLAEQNEWSRSQVQEWLKAGRVEVDGRVVKPNYKLSGTESIAVHIPEAV | -0.0787
70 | HMNEWVSVEERLPTDERPVLAFIGYADTMNGFITTSYYFRFDPDPHWLGEGLIPVGLKTLFWMPLPAP | -0.0414
71 | HMNEYSLVPDIYGMTYDDALSSLRNVGLDGRLALASTNEDLANADTRVVWQSKEAGSIIDKGSNVMFVID | -1.27
72 | HMNFAERIKELRKEKGITQIDLAEAVGLSKGTVAMWEVDKREANFDTLNKLSDYFQVSIDYLLGRSNDRS | -0.206
73 | HMNFDVETGLPLDSRLVVSGLIQRDGINSLKRYEGMIVYVESEAKNYQLVGGISNTDWAELS | -0.426
74 | HMNFGEVLQTKRKSMGLTQEDLADKLFVSSETISNWETNKTTPDIDNVIRISQLFDISLNNLLL | -0.89
75 | HMNFIPGEKINLKIVQEGKEKNQGVGYLSDGTMVIVENGSQKLGQDVEVVVIKNIQSSAGKIVFGDISK | 0.227
